Target: HLA-A*02:01 (Homo sapiens, UniProt P04439, D140Y/D185E/D98H/E176V/E277Q/G131W/G231S/I119V/I121R/I166T/I218V/L300P/L318F/N151K/N90K/P208A/P217A/Q86G/Q94H/R138H/R169H/T345S)
Experiment: MHC binding assay (UV-ligand exchange, anti-β2m ELISA, peptide exchange yield)
Conditions: binding to HLA-A*02:01
Method in brief: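 Peptide-MHC complexes formed by UV-ligand exchange, cleaving a UV-sensitive placeholder peptide in favour of the test peptide. Exchange yield measured by ELISA: monomers diluted 100-fold onto streptavidin-coated plates, 1 h 37 °C, detected with 2 ug/ml HRP anti-β2m and TMB, absorbance at 450 nm.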

| Substance | Peptide exchange (MHC class I binding score, peptide exchange yield) |
| --- | --- |
| 138 (YQYPRAILSV; listed as Homo sapiens) [compound 138] | “+++” (>50 = +++) |
| 441 (ALLENPKMEL; listed as Homo sapiens) [compound 441] | “+++” (>50 = +++) |
| 103 (TLAEEVVAL; listed as Homo sapiens) [compound 103] | “+++” (>50 = +++) |
| 135 (ALSEVDFQL; listed as Homo sapiens) [compound 135] | “+++” (>50 = +++) |
| 561 (YLQLTQSEL; listed as Homo sapiens) [compound 561] | “+++” (>50 = +++) |
| 577 (VMFEDGVLMRL; listed as Homo sapiens) [compound 577] | “+++” (>50 = +++) |
| 358 (ALDEYTSEL; listed as Homo sapiens) [compound 358] | “++++” (>75% = ++++) |
| 459 (ALITEVVRL; listed as Homo sapiens) [compound 459] | “++” (>20% = ++) |
| 590 (SLIEKLWQT; listed as Homo sapiens) [compound 590] | “++” (>20% = ++) |
| 315 (YLQDVVEQA; listed as Homo sapiens) [compound 315] | “+++” (>50 = +++) |
| 235 (YLNDLHEVLL; listed as Homo sapiens) [compound 235] | “++++” (>75% = ++++) |
| 474 (YLDPALELGPRNV; listed as Homo sapiens) [compound 474] | “+++” (>50 = +++) |
| 27 (ILADIVISA; listed as Homo sapiens) [compound 27] | “+++” (>50 = +++) |
| 568 (TLYDIAHTPGV; listed as Homo sapiens) [compound 568] | “++++” (>75% = ++++) |
| 506 (KLLGKVETA; listed as Homo sapiens) [compound 506] | “+++” (>50 = +++) |
| 343 (SLLEVNEESTV; listed as Homo sapiens) [compound 343] | “+++” (>50 = +++) |
| 486 (AVMESIQGV; listed as Homo sapiens) [compound 486] | “+++” (>50 = +++) |
| 329 (FLVTLNNVEV; listed as Homo sapiens) [compound 329] | “++++” (>75% = ++++) |
| 314 (ALIAEGIALV; listed as Homo sapiens) [compound 314] | “+++” (>50 = +++) |
| 210 (LLLNAVLTV; listed as Homo sapiens) [compound 210] | “++” (>20% = ++) |
| 180 (FQIDPHSGLVTV; listed as Homo sapiens) [compound 180] | “++” (>20% = ++) |

| Substance | Peptide exchange (MHC class I binding score, peptide exchange yield) |
| --- | --- |
| 91 (IMQDFPAEIFL; listed as Homo sapiens) [compound 91] | “++++” (>75% = ++++) |
| 453 (KLLEATSAV; listed as Homo sapiens) [compound 453] | “++” (>20% = ++) |
| 167 (KVLEVTEEFGV; listed as Homo sapiens) [compound 167] | “+++” (>50 = +++) |
| 328 (ALNDQVFEI; listed as Homo sapiens) [compound 328] | “+++” (>50 = +++) |
| 362 (TLYGLSVLL; listed as Homo sapiens) [compound 362] | “+++” (>50 = +++) |
| 386 (ILFRYPLTI; listed as Homo sapiens) [compound 386] | “+++” (>50 = +++) |
| 318 (GLINTGVLSV; listed as Homo sapiens) [compound 318] | “++” (>20% = ++) |
| 503 (SLNHFTHSV; listed as Homo sapiens) [compound 503] | “+++” (>50 = +++) |
| 117 (ILPDGEDFLAV; listed as Homo sapiens) [compound 117] | “+++” (>50 = +++) |
| 429 (GLVNDLARV; listed as Homo sapiens) [compound 429] | “++” (>20% = ++) |
| 562 (YLEELPEKLKL; listed as Homo sapiens) [compound 562] | “+++” (>50 = +++) |
| 465 (QLCDLNAEL; listed as Homo sapiens) [compound 465] | “+++” (>50 = +++) |
| 576 (ILLNNSGQIKL; listed as Homo sapiens) [compound 576] | “++++” (>75% = ++++) |
| 106 (LLYDAVHIVSV; listed as Homo sapiens) [compound 106] | “+++” (>50 = +++) |
| 467 (FLAKDFNFL; listed as Homo sapiens) [compound 467] | “+++” (>50 = +++) |
| 194 (ALPLFVITV; listed as Homo sapiens) [compound 194] | “+++” (>50 = +++) |
| 124 (ALYETELADA; listed as Homo sapiens) [compound 124] | “++” (>20% = ++) |
| 548 (ALWENPESGEL; listed as Homo sapiens) [compound 548] | “++” (>20% = ++) |
| 409 (LLDAMNYHL; listed as Homo sapiens) [compound 409] | “++” (>20% = ++) |
| 597 (KLLEGQVIQL; listed as Homo sapiens) [compound 597] | “+++” (>50 = +++) |
| 508 (ILAQEQLVVGV; listed as Homo sapiens) [compound 508] | “+++” (>50 = +++) |

| Substance | Peptide exchange (MHC class I binding score, peptide exchange yield) |
| --- | --- |
| 280 (VLPDPEVLEAV; listed as Homo sapiens) [compound 280] | “+++” (>50 = +++) |
| 544 (LLWDVPAPSL; listed as Homo sapiens) [compound 544] | “+++” (>50 = +++) |
| 228 (AMQEYIAVV; listed as Homo sapiens) [compound 228] | “++” (>20% = ++) |
| 250 (ALSEEGLLVYL; listed as Homo sapiens) [compound 250] | “+++” (>50 = +++) |
| 563 (WLLPYNGVTV; listed as Homo sapiens) [compound 563] | “+++” (>50 = +++) |
| 301 (FLVEDLVDSL; listed as Homo sapiens) [compound 301] | “+++” (>50 = +++) |
| 340 (ALLSMTFPL; listed as Homo sapiens) [compound 340] | “++++” (>75% = ++++) |
| 93 (LLQAIKLYL; listed as Homo sapiens) [compound 93] | “++” (>20% = ++) |
| 45 (SLWQDIPDV; listed as Homo sapiens) [compound 45] | “+++” (>50 = +++) |
| 77 (ILVEADGAWVV; listed as Homo sapiens) [compound 77] | “++++” (>75% = ++++) |
| 26 (ALLELAEEL; listed as Homo sapiens) [compound 26] | “+++” (>50 = +++) |
| 617 (ALMYESEKVGV; listed as Homo sapiens) [compound 617] | “+++” (>50 = +++) |
| 155 (RVANLHFPSV; listed as Homo sapiens) [compound 155] | “+++” (>50 = +++) |
| 182 (MLLEAPGIFL; listed as Homo sapiens) [compound 182] | “+++” (>50 = +++) |
| 120 (ALLGIPLTLV; listed as Homo sapiens) [compound 120] | “+++” (>50 = +++) |
| 364 (LLQNEQFEL; listed as Homo sapiens) [compound 364] | “+++” (>50 = +++) |
| 132 (LLVEQPPLAGV; listed as Homo sapiens) [compound 132] | “+++” (>50 = +++) |
| 553 (SLLNQDLHWSL; listed as Homo sapiens) [compound 553] | “+++” (>50 = +++) |
| 584 (ALAEVAAMENV; listed as Homo sapiens) [compound 584] | “+++” (>50 = +++) |
